Two substances from article PMC11266248 can be followed below.

In assay [1] the target is recombinant factor H-like protein 1 (human) (UniProt P08603). Kind of assay: SPR; Biacore T100, CM5 chip; FH (750 RU), rFHL-1 or rFH15-20 (200 RU) amine-coupled as ligands; CspZ or FhbA as analytes; PBS with 0.05% Tween20, 25 °C, 30 µl/min; single-cycle and multiple-cycle kinetics, Langmuir 1:1 model; in duplicate.
Assay [2] addresses factor H binding A (FhbA) from Borrelia hermsii (Borrelia hermsii). In words: LC-HRMS (ESI-Q-TOF); ACE C4 column, 0.1% formic acid/acetonitrile gradient, ESI+, deconvolution with UniDec.
For assay [3] the target is unchanged. Kind of assay: SEC-MALS; Superdex 200 increase 10/300 GL in PBS, 0.7 mL/min; 100 µL injected at about 3.75 mg/mL (CspZ) or 2.50 mg/mL (FhbA).
The target in assay [4] is purified human complement factor H from human plasma/serum (human) (UniProt P08603). Kind of assay: SPR; Biacore T100, CM5 chip; FH (750 RU), rFHL-1 or rFH15-20 (200 RU) amine-coupled as ligands; CspZ or FhbA as analytes; PBS with 0.05% Tween20, 25 °C, 30 µl/min; single-cycle and multiple-cycle kinetics, Langmuir 1:1 model; in duplicate.
Chain of purified human complement factor H from human plasma/serum (human) (P08603 19-1231): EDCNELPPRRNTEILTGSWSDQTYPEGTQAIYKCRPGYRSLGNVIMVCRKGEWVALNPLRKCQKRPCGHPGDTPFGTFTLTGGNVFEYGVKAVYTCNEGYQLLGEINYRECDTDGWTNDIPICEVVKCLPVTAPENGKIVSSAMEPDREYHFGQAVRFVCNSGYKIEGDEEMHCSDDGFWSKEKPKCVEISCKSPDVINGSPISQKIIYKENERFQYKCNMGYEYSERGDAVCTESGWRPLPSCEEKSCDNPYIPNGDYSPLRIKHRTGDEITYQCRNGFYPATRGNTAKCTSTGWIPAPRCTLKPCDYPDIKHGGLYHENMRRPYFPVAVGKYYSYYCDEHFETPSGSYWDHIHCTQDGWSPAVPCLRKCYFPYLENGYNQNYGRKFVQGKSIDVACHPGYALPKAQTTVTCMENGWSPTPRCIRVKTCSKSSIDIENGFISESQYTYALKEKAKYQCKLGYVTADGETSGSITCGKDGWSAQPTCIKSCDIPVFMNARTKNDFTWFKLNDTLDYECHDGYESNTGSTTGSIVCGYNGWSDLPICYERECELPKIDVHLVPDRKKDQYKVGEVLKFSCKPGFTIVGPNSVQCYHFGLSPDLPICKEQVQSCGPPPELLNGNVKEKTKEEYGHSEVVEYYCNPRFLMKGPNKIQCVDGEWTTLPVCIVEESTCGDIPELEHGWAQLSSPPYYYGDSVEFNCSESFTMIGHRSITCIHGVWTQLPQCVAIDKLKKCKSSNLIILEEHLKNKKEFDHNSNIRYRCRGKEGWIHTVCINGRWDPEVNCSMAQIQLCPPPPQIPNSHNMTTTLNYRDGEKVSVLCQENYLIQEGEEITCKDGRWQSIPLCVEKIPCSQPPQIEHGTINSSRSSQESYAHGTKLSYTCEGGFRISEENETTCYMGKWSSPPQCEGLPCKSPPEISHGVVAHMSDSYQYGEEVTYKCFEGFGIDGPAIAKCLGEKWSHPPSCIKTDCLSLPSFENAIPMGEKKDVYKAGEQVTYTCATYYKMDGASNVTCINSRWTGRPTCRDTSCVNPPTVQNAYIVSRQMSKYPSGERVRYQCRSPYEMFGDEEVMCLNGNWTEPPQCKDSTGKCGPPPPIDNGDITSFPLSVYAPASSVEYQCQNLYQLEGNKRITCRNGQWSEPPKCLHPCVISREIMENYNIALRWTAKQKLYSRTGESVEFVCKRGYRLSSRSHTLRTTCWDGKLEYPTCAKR
Assay [5] addresses recombinant factor H SCR15-20 (human) (UniProt P08603). The assay is described as above.

Values joined by “and” are separate entries in the source; they are usually repeats but may differ in a detail not shown here. Equal entries are not always repeated.

Chain of recombinant factor H SCR15-20 (human) (P08603 860-1231): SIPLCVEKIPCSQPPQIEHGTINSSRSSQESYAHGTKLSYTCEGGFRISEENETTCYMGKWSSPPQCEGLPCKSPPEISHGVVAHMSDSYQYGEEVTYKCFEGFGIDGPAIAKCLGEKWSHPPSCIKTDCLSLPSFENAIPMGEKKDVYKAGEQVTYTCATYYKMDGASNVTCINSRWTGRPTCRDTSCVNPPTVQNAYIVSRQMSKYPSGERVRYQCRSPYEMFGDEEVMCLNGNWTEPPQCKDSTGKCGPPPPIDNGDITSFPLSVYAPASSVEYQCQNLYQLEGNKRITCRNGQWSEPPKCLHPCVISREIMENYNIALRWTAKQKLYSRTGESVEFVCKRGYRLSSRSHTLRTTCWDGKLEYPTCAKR
Chain of recombinant factor H-like protein 1 (human) (P08603 other isoform, or with tags, fused parts or gaps): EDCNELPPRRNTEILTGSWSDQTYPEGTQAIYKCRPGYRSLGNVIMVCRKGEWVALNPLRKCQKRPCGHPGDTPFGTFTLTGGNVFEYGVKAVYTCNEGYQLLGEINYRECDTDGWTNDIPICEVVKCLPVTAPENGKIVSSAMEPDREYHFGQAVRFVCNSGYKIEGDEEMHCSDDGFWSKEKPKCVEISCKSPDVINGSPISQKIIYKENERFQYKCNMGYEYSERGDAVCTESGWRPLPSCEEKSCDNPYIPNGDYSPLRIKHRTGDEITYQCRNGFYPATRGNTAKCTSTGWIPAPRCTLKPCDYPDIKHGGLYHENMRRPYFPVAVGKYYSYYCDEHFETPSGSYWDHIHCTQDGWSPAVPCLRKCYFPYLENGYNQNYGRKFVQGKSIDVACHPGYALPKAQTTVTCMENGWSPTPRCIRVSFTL

With “CspZ from Borrelia burgdorferi sensu stricto (complement regulator-acquiring surface protein 2) (from UniProt O50665 1-236) (natural protein)”, in assay [1], the Kd came out at 0.044 nM, the koff is 3.1e-05 s⁻¹ and the kon was 720000 M⁻¹ s⁻¹.

The substance “factor H binding A (FhbA) from Borrelia hermsii (natural protein)” returned a stoichiometry N in assay [2] of 2. For the same substance, in assay [3], the representation of the dimer peak (46.2 kDa) in the sample (%) is 27%; the representation of the pentamer peak (119.0 kDa) in the sample (%) was determined as 1%; the representation of the trimer peak (71.7 kDa) in the sample (%) was 6%; the stoichiometry N is 2 and 3 and 5. In assay [1], the Kd worked out at 42.9 nM, the koff was 6.74e-05 s⁻¹ and the kon is 1570 M⁻¹ s⁻¹. In assay [4], this substance gave a Kd of 1.09 nM, a koff of 0.000268 s⁻¹ and a kon of 246000 M⁻¹ s⁻¹. Besides, in assay [5], the Kd was determined as 3.37 nM, the koff was found to be 0.000266 s⁻¹ and the kon came out at 85400 M⁻¹ s⁻¹.
